Reference: the supplement of paper PMC7877785
± gives the uncertainty stated by the source.

Test: self-splicing fitness, log relative to wild type (ln ratio); higher = more splicing; Tetrahymena group I intron in knt gene, E. coli kanamycin selection, DiMSum; sequences stand for … in CUCUCU…GGAGGGAAAAGUUAUCAGGCAUGCACCUGGUAGCUAGUCUUUAAACCAAUAGAUUGCAUCGGUUUAAAAGGCAAGACCGUCAAAUUGCGGGAAAGGGGUCAACAGCCGUUCAGUACCAAGUCUCAGGGGAAACUUUGAGAUGGCCUUGCAAAGGGUAUGGUAAUAAGCUGACGGACAUGGUCCUAACCACGCAGCCAAGUCCUAAGUCAACAGAUCUUCUGUUGAUAUGGAUGCAGUUCACAGACUAAAUGUCGGUCGGGGAAGAUGUAUUCUUCUCAUAAGAUAUAGUCGGACCUCUCCUUAAUGGGAGCUAGCGGAUGAAGUGAUGCAACACUGGAGCCGCUGGGAACUAAUUUGUAUGCGAAAGUAUAUUGAUUAGUUUUGGAGUACUCGUGGUCG
How it was run: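 Fitness was computed with DiMSum as the error-weighted combination of replicate fold changes, kanamycin versus none, each normalised to wild type. The library randomised all eight intron nucleotides of the P1ex region, with the intron placed in the knt kanamycin-resistance gene on pET-22b(+) in E. coli BL21(DE3). Six replicate transformations were grown overnight at 37°C or 30°C on LB agar with or without 25 μg/mL kanamycin, plus 100 μg/mL carbenicillin, 50 μM IPTG and 0.2% rhamnose. Pooled colonies were amplicon-sequenced on an Illumina HiSeq 2500.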

| Sequence | self-splicing fitness (ln) (30 °C) | self-splicing fitness (ln) (37 °C) |
| --- | --- | --- |
| ACUGAGCAAUAUUACGACGA | -1.3 ± 0.13 | -0.569 ± 0.12 |
| ACUGAGCAAUAUUACGACUG | -3.2 ± 0.34 | -1.68 ± 0.23 |
| ACUGAGCAAUAUUACGACUU | -1.4 ± 0.11 | -0.511 ± 0.14 |
| ACUGAGCAAUAUUACGAUUA | -3.39 ± 0.3 | -1.78 ± 0.18 |
| ACUGAGCAAUAUUACGCAAA | -2.29 ± 0.38 | -1.93 ± 0.34 |
| ACUGAGCAAUAUUACGCACU | -0.721 ± 0.13 | -0.386 ± 0.17 |
| ACUGAGCAAUAUUACGCCCC | -2.6 ± 0.34 | – |
| ACUGAGCAAUAUUACGCCGA | -3.61 ± 0.47 | -1.33 ± 0.23 |
| ACUGAGCAAUAUUACGCCGG | -2.48 ± 0.3 | – |
| ACUGAGCAAUAUUACGCGCG | -1.14 ± 0.11 | -0.367 ± 0.12 |
| ACUGAGCAAUAUUACGCUAC | -3.24 ± 0.24 | – |
| ACUGAGCAAUAUUACGCUGC | – | -1.98 ± 0.33 |
| ACUGAGCAAUAUUACGCUUG | -3.28 ± 0.3 | -2.75 ± 0.31 |
| ACUGAGCAAUAUUACGGAAU | -3.39 ± 0.35 | -1.87 ± 0.23 |
| ACUGAGCAAUAUUACGGAUC | – | -1.91 ± 0.35 |
| ACUGAGCAAUAUUACGGCAU | -0.643 ± 0.071 | -0.708 ± 0.1 |
| ACUGAGCAAUAUUACGGCUG | -1.18 ± 0.16 | -0.804 ± 0.19 |
| ACUGAGCAAUAUUACGGGAA | -2.94 ± 0.17 | -2.48 ± 0.24 |
| ACUGAGCAAUAUUACGGGAU | -3.03 ± 0.17 | -2.18 ± 0.22 |
| ACUGAGCAAUAUUACGGUGC | -3.32 ± 0.19 | -1.9 ± 0.18 |
| ACUGAGCAAUAUUACGGUGU | -3.14 ± 0.13 | -1.41 ± 0.1 |
| ACUGAGCAAUAUUACGUAUA | -2.58 ± 0.2 | -1.97 ± 0.25 |
| ACUGAGCAAUAUUACGUUAC | -3.95 ± 0.3 | -2.9 ± 0.38 |
| ACUUAGCAAUAUUACGAAGC | – | -2.25 ± 0.5 |
| ACUUAGCAAUAUUACGACCC | 0.555 ± 0.32 | – |

| Sequence | self-splicing fitness (ln) (30 °C) | self-splicing fitness (ln) (37 °C) |
| --- | --- | --- |
| ACUUAGCAAUAUUACGAGUU | -2.42 ± 0.12 | -0.552 ± 0.14 |
| ACUUAGCAAUAUUACGAUAA | -2.81 ± 0.27 | -0.457 ± 0.3 |
| ACUUAGCAAUAUUACGCACU | -0.553 ± 0.093 | 0.532 ± 0.12 |
| ACUUAGCAAUAUUACGCAGC | -1.98 ± 0.4 | -1.43 ± 0.19 |
| ACUUAGCAAUAUUACGCCCC | -0.135 ± 0.33 | – |
| ACUUAGCAAUAUUACGCCCG | -1.55 ± 0.17 | 0.138 ± 0.28 |
| ACUUAGCAAUAUUACGCGAU | -3.66 ± 0.36 | -1.13 ± 0.17 |
| ACUUAGCAAUAUUACGCGCG | -1.56 ± 0.11 | -0.437 ± 0.12 |
| ACUUAGCAAUAUUACGCGGA | -2.36 ± 0.11 | -0.613 ± 0.088 |
| ACUUAGCAAUAUUACGCUAC | -2.59 ± 0.34 | -1.9 ± 0.33 |
| ACUUAGCAAUAUUACGCUAU | -3.05 ± 0.24 | -2.09 ± 0.23 |
| ACUUAGCAAUAUUACGGAGA | -3.19 ± 0.28 | -2.07 ± 0.2 |
| ACUUAGCAAUAUUACGGAGC | -3.46 ± 0.3 | -0.469 ± 0.18 |
| ACUUAGCAAUAUUACGGGGC | -3.2 ± 0.18 | -2.55 ± 0.23 |
| ACUUAGCAAUAUUACGGUAC | -3.36 ± 0.21 | -3.57 ± 0.42 |
| ACUUAGCAAUAUUACGGUUC | -2.73 ± 0.16 | -3.35 ± 0.26 |
| ACUUAGCAAUAUUACGUAAU | -2.39 ± 0.1 | -1.54 ± 0.12 |
| ACUUAGCAAUAUUACGUCAA | -4.05 ± 0.33 | -3.36 ± 0.3 |
| ACUUAGCAAUAUUACGUCUG | -1.82 ± 0.11 | -0.782 ± 0.15 |
| ACUUAGCAAUAUUACGUGUA | -2.37 ± 0.11 | -1.43 ± 0.095 |
| ACUUAGCAAUAUUACGUGUC | -3.37 ± 0.16 | -2.7 ± 0.25 |
| ACUUAGCAAUAUUACGUUCG | -1.52 ± 0.18 | -0.802 ± 0.18 |
| ACUUAGCAAUAUUACGUUGA | -4.69 ± 0.36 | -2.06 ± 0.12 |
| AGAAAGCAAUAUUACGAGAA | -2.63 ± 0.27 | -1.24 ± 0.25 |
| AGAAAGCAAUAUUACGAGAG | -3.2 ± 0.16 | -2.44 ± 0.17 |

| Sequence | self-splicing fitness (ln) (30 °C) | self-splicing fitness (ln) (37 °C) |
| --- | --- | --- |
| AGAAAGCAAUAUUACGCCCC | -0.22 ± 0.36 | – |
| AGAAAGCAAUAUUACGCGGA | -2.26 ± 0.13 | -0.649 ± 0.13 |
| AGAAAGCAAUAUUACGCGUC | -1.84 ± 0.12 | -1.32 ± 0.15 |
| AGAAAGCAAUAUUACGCGUG | -1.72 ± 0.087 | -0.548 ± 0.093 |
| AGAAAGCAAUAUUACGGAAU | -2.02 ± 0.15 | -1.74 ± 0.2 |
| AGAAAGCAAUAUUACGGACA | -0.632 ± 0.2 | -0.869 ± 0.29 |
| AGAAAGCAAUAUUACGGCAG | -0.958 ± 0.095 | -1.28 ± 0.12 |
| AGAAAGCAAUAUUACGGCGC | -0.688 ± 0.12 | -1.01 ± 0.15 |
| AGAAAGCAAUAUUACGGGAU | -1.14 ± 0.14 | -1.04 ± 0.12 |
| AGAAAGCAAUAUUACGGGCC | -1.66 ± 0.14 | -1.04 ± 0.13 |
| AGAAAGCAAUAUUACGGUGG | -3.11 ± 0.18 | -2.32 ± 0.17 |
| AGAAAGCAAUAUUACGUAUG | -2.58 ± 0.12 | -3.05 ± 0.19 |
| AGAAAGCAAUAUUACGUGGC | -3.67 ± 0.3 | -1.14 ± 0.19 |
| AGAAAGCAAUAUUACGUUAC | -3.26 ± 0.19 | -1.89 ± 0.18 |
| AGAAAGCAAUAUUACGUUGG | -3.2 ± 0.2 | -0.323 ± 0.12 |
| AGACAGCAAUAUUACGACCG | -1.4 ± 0.12 | -0.429 ± 0.14 |
| AGACAGCAAUAUUACGACGA | -1.29 ± 0.13 | -0.547 ± 0.12 |
| AGACAGCAAUAUUACGACGU | 0.00817 ± 0.047 | -0.185 ± 0.051 |
| AGACAGCAAUAUUACGAGUC | -3.06 ± 0.19 | -2.52 ± 0.22 |
| AGACAGCAAUAUUACGAUGA | -2.02 ± 0.12 | -0.531 ± 0.094 |
| AGACAGCAAUAUUACGAUGG | -3.44 ± 0.16 | -2.21 ± 0.16 |
| AGACAGCAAUAUUACGCAAU | -2.41 ± 0.17 | -0.644 ± 0.11 |
| AGACAGCAAUAUUACGCCGU | -3.43 ± 0.21 | -2.91 ± 0.29 |
| AGACAGCAAUAUUACGCGAA | -2.45 ± 0.12 | -0.878 ± 0.1 |
| AGACAGCAAUAUUACGCUCC | -3.32 ± 0.48 | -1.64 ± 0.19 |

| Sequence | self-splicing fitness (ln) (30 °C) | self-splicing fitness (ln) (37 °C) |
| --- | --- | --- |
| AGACAGCAAUAUUACGUAGU | -3.27 ± 0.1 | -1.88 ± 0.1 |
| AGACAGCAAUAUUACGUAUA | -2.54 ± 0.14 | -0.807 ± 0.13 |
| AGACAGCAAUAUUACGUAUU | -2.58 ± 0.11 | -1.4 ± 0.12 |
| AGACAGCAAUAUUACGUCGG | -2.44 ± 0.15 | -0.528 ± 0.15 |
| AGACAGCAAUAUUACGUCUC | -2.87 ± 0.19 | -3.53 ± 0.35 |
| AGACAGCAAUAUUACGUGAU | -2.36 ± 0.075 | -0.742 ± 0.087 |
| AGACAGCAAUAUUACGUGCA | -0.683 ± 0.069 | -0.00672 ± 0.079 |
| AGACAGCAAUAUUACGUGGC | -3.01 ± 0.19 | -2.12 ± 0.22 |
| AGACAGCAAUAUUACGUUAA | -3.26 ± 0.14 | -1.27 ± 0.087 |
| AGACAGCAAUAUUACGUUAG | -3.69 ± 0.21 | -2.14 ± 0.15 |
| AGACAGCAAUAUUACGUUGU | -3.02 ± 0.13 | -2.21 ± 0.12 |
| AGAGAGCAAUAUUACGAAAA | – | -1.5 ± 0.5 |
| AGAGAGCAAUAUUACGACAG | -3.47 ± 0.43 | -2.52 ± 0.41 |
| AGAGAGCAAUAUUACGAGUC | – | -2.23 ± 0.29 |
| AGAGAGCAAUAUUACGAUCG | -1.94 ± 0.11 | -0.822 ± 0.18 |
| AGAGAGCAAUAUUACGCAAA | -2.1 ± 0.32 | -2.69 ± 0.48 |
| AGAGAGCAAUAUUACGCGAA | -3.26 ± 0.37 | -2.82 ± 0.34 |
| AGAGAGCAAUAUUACGCGCG | – | -1.3 ± 0.48 |
| AGAGAGCAAUAUUACGGGCG | -3.07 ± 0.34 | -2.3 ± 0.5 |
| AGAGAGCAAUAUUACGGGCU | -3.62 ± 0.23 | -1.48 ± 0.42 |
| AGAGAGCAAUAUUACGGUUG | – | -1.45 ± 0.41 |
| AGAGAGCAAUAUUACGUACU | -1.2 ± 0.13 | -1 ± 0.15 |
| AGAGAGCAAUAUUACGUCAU | – | -1.01 ± 0.16 |
| AGAGAGCAAUAUUACGUGAU | -3.94 ± 0.18 | -2.1 ± 0.23 |
